Results reported in PMC9033776 (2022).
Where no end group is shown, it is not given here.

Tests used:
Assay in all cases: ITC
[1] = target: BRD2_(bromo1) (amino acids 73–194) (UniProt P25440 73-194)
[2] = target: BRD2_(bromo2) domain (amino acids 455–347) (UniProt P25440 347-455)
[3] = target: BRD3_(bromo1) (amino acids 24–144) (UniProt Q15059 24-144)
[4] = target: BRD3_(bromo2) domain (amino acids 306–416) (UniProt Q15059 306-416)
[5] = target: Bromo1-linker(GGS)5-Bromo2 of BRD4 (UniProt O60885 54-168; O60885 351-457)

Chain of BRD2_(bromo2) domain (amino acids 455–347) (P25440 347-455): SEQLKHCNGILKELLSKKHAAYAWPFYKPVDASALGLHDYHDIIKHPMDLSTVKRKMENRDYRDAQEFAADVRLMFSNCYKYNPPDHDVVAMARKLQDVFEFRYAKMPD
Chain of BRD3_(bromo1) (amino acids 24–144) (Q15059 24-144): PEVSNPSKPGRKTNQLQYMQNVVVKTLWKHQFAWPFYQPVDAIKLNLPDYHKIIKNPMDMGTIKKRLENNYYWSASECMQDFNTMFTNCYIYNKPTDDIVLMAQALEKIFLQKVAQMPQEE
Chain of BRD3_(bromo2) domain (amino acids 306–416) (Q15059 306-416): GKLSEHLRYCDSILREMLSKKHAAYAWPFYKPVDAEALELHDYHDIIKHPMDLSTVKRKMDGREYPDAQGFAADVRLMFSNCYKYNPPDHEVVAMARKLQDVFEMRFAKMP
Chain of BRD2_(bromo1) (amino acids 73–194) (P25440 73-194): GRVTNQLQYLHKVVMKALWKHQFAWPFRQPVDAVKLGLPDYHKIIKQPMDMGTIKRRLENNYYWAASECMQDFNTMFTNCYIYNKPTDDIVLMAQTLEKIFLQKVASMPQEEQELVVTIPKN

Kd [1] | Kd [2] | Kd [3] | Kd [4] | Kd [5] | Binder
2600 µM | 2000 µM | 1500 µM | 1800 µM |  | AGGK(Ac)AGK(Ac)DSGK(Ac)AKTK [tri-acetylated H2A.Z (1–15) K4acK7acK11ac peptide]
 |  |  |  | 350 µM | AGGK(Ac)AGK(Ac)DSGK(Ac)AKTKC (also: cross-linked via C-terminal cysteine) [H2A.ZK4ac7ac11ac peptides cross-linked by a C-terminal cysteine]
